Test results reported in paper PMC5676948, “Inactivation mechanism of N61S mutant of human FMO3 towards trimethylamine” (Scientific Reports, 2017).

Legend:
[1] = biological target: T1, human flavin-containing monooxygenase 3 (hFMO3), N61S variant (Homo sapiens, UniProt P31513, N61S); experiment: stopped-flow anaerobic FAD reduction at […] nm, Kd from kobs vs [NADPH]; format: biochemical; details: read-out: Reduction / K d,NADPH /
T1 construct: gene FMO3
T1 sequence (P31513 2-532 N61S): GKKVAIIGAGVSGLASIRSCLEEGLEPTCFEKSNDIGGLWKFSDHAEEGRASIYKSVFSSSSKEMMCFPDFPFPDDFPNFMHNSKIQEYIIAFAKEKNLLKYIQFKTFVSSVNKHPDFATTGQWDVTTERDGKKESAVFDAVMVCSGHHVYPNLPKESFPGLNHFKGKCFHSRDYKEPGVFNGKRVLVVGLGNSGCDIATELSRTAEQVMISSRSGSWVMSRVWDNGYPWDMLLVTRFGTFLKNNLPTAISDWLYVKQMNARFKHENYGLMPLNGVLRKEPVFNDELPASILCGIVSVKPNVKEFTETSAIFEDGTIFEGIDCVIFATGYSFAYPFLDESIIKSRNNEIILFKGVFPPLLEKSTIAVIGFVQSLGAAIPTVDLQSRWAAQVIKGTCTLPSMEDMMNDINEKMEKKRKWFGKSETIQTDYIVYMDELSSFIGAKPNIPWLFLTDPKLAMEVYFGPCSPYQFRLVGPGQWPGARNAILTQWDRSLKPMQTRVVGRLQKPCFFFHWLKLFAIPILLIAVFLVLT

[2] = biological target: T2, human flavin-containing monooxygenase 3 (hFMO3), wild type (Homo sapiens, UniProt P31513); experiment: as above; format: biochemical; details: read-out: Reduction / K d,NADPH /
T2 construct: gene FMO3
T2 sequence (P31513 2-532): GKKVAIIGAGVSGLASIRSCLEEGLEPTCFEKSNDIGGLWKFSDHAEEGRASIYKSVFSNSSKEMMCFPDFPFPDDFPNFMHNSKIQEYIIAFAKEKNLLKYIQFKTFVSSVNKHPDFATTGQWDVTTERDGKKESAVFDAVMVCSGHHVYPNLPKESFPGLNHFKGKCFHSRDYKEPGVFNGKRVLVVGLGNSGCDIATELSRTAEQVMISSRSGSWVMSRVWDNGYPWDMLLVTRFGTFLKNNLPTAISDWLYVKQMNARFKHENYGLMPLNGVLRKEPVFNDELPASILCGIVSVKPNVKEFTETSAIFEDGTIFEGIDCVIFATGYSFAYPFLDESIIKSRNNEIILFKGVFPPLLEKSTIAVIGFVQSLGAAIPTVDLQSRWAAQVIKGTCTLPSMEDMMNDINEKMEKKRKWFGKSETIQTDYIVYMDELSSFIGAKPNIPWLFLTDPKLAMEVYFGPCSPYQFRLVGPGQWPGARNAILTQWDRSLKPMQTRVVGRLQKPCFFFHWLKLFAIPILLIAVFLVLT

[3] = biological target: T2, human flavin-containing monooxygenase 3 (hFMO3), wild type; experiment: ITC (supported by CD and DSC thermal shifts and trypsin protection); format: binding
[4] = substrate: Cn1cc[nH]c1=S; experiment: purified protein; details: FAD, NADPH
[5] = substrate: CN(C)CCCOc1nn(Cc2ccccc2)c2ccccc12; experiment: purified protein; details: FAD, NADPH
[6] = substrate: CC/C(=C(\c1ccccc1)c1ccc(OCCN(C)C)cc1)c1ccccc1; experiment: purified protein; details: FAD, NADPH
[7] = substrate: CN(C)C; experiment: purified protein; format: biochemical, Homo sapiens; details: FAD, NADPH

Q: What does the source list for `NC(=O)C1=CN([C@@H]2O[C@H](COP(=O)(O)OP(=O)(O)OC[C@H]3O[C@@H](n4cnc5c(N)ncnc54)[C@H](OP(=O)(O)O)[C@@H]3O)[C@@H](O)[C@H]2O)C=CC1` [NADPH]?
A: Kd [1]: 51.8 µM; Kd [2]: 0.3 µM

Q: Which Kd [3] does the source give for `NC(=O)c1ccc[n+]([C@@H]2O[C@H](COP(=O)(O)OP(=O)(O)OC[C@H]3O[C@@H](n4cnc5c(N)ncnc54)[C@H](OP(=O)(O)O)[C@@H]3O)[C@@H](O)[C@H]2O)c1` [NADP^+] here?
A: 3.7 µM

B1: human flavin-containing monooxygenase 3 (hFMO3), N61S variant (Homo sapiens; N61S) (protein)
chain: GKKVAIIGAGVSGLASIRSCLEEGLEPTCFEKSNDIGGLWKFSDHAEEGRASIYKSVFSSSSKEMMCFPDFPFPDDFPNFMHNSKIQEYIIAFAKEKNLLKYIQFKTFVSSVNKHPDFATTGQWDVTTERDGKKESAVFDAVMVCSGHHVYPNLPKESFPGLNHFKGKCFHSRDYKEPGVFNGKRVLVVGLGNSGCDIATELSRTAEQVMISSRSGSWVMSRVWDNGYPWDMLLVTRFGTFLKNNLPTAISDWLYVKQMNARFKHENYGLMPLNGVLRKEPVFNDELPASILCGIVSVKPNVKEFTETSAIFEDGTIFEGIDCVIFATGYSFAYPFLDESIIKSRNNEIILFKGVFPPLLEKSTIAVIGFVQSLGAAIPTVDLQSRWAAQVIKGTCTLPSMEDMMNDINEKMEKKRKWFGKSETIQTDYIVYMDELSSFIGAKPNIPWLFLTDPKLAMEVYFGPCSPYQFRLVGPGQWPGARNAILTQWDRSLKPMQTRVVGRLQKPCFFFHWLKLFAIPILLIAVFLVLT
Q: Which Km [4] does the source give for B1 here?
A: 8652.1 ± 351.6 µM

Q: And the kcat [4]?
A: 0.118 s⁻¹

Q: What about the kcat/Km [4] of the same molecule?
A: 13.3 M⁻¹ s⁻¹

Q: What about the Km [5] of the same molecule?
A: 417.3 ± 74.6 µM

Q: What about the kcat [5] of the same molecule?
A: 0.0333 s⁻¹

Q: What about the kcat/Km [5] of the same molecule?
A: 83.3 M⁻¹ s⁻¹

Q: And the Km [6]?
A: 14.8 ± 3.4 µM

Q: What about the kcat [6] of the same molecule?
A: 0.00733 s⁻¹

Q: And the kcat/Km [6]?
A: 500 M⁻¹ s⁻¹

B2: human flavin-containing monooxygenase 3 (hFMO3), wild type (Homo sapiens) (protein)
chain: GKKVAIIGAGVSGLASIRSCLEEGLEPTCFEKSNDIGGLWKFSDHAEEGRASIYKSVFSNSSKEMMCFPDFPFPDDFPNFMHNSKIQEYIIAFAKEKNLLKYIQFKTFVSSVNKHPDFATTGQWDVTTERDGKKESAVFDAVMVCSGHHVYPNLPKESFPGLNHFKGKCFHSRDYKEPGVFNGKRVLVVGLGNSGCDIATELSRTAEQVMISSRSGSWVMSRVWDNGYPWDMLLVTRFGTFLKNNLPTAISDWLYVKQMNARFKHENYGLMPLNGVLRKEPVFNDELPASILCGIVSVKPNVKEFTETSAIFEDGTIFEGIDCVIFATGYSFAYPFLDESIIKSRNNEIILFKGVFPPLLEKSTIAVIGFVQSLGAAIPTVDLQSRWAAQVIKGTCTLPSMEDMMNDINEKMEKKRKWFGKSETIQTDYIVYMDELSSFIGAKPNIPWLFLTDPKLAMEVYFGPCSPYQFRLVGPGQWPGARNAILTQWDRSLKPMQTRVVGRLQKPCFFFHWLKLFAIPILLIAVFLVLT
Q: What does the source list for B2?
A: Km [4]: 14.9 ± 2.0 µM; kcat [4]: 0.14 s⁻¹; kcat/Km [4]: 9330 M⁻¹ s⁻¹; Km [7]: 21.7 ± 4.6 µM; kcat [7]: 0.045 ± 0.00333 s⁻¹; kcat/Km [7]: 2000 M⁻¹ s⁻¹
